According to the nanobody polyreactivity screen of Harvey et al. (2022):

Assay: yeast display, Sf9 membrane polyspecificity reagent, FACS + sequencing; frameworks hold sequencing errors
How it was run: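 Synthetic nanobody libraries on Saccharomyces cerevisiae BJ5465 were galactose-induced for 36–48 hours, stained 1 hour at 4 °C with 10% biotinylated, detergent-solubilized Sf9 membrane reagent and enriched on streptavidin microbeads. FACS then separated cells into low and high (top ~1%) gates by anti-HA (expression) and streptavidin (reagent binding) fluorescence. Genes were colony-PCR amplified, MiSeq 2 × 250 sequenced and CDR-length filtered. A clone's polyreactivity label is that of its gate of origin.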

| Sequence | polyreactivity (PSR sort gate) |
| --- | --- |
| QVQLVESGGGLVQAGGSLRLSFAASGIIFDLYAMGWYRQAPGKERELVAAITRSVGSTYYADSVKGRFTISRDNAKNTVYLQMNSLKPEDTAVYFCAAVRFAYGYTYDYWGQGTQVTVSS | high polyreactivity |
| QVQLVESGGGLVQAGGSLRLSFAASGIIFGWYAVGWYRQAHGKDRELVAAINIGGSTNYADSVKGRFTISRYNAKNTVYLQMNSLKPEDTADYYCNARTPGYRYGRDYWGQGTQVTVSS | high polyreactivity |
| QVQLVESGGGLVQAGGSLRLSFAASGIIFTRYAMGWYRQAPGKERELVARISWRGSSTSYPDSVKGRFTISRDNAKNTVYLQMNSLKPEDSAVYYCAARYLYLWADYEFGYWVQGTQVTVSS | high polyreactivity |
| QVQLVESGGGLVQAGGSLRLSFAASGITFASNTMGWYRQAPGKERELVAAITRGDNTYYADSVKGRFTISRDNAKNTVYLQMKSLKPEDTAVYYCAKDPHGVEPVPDGYDYWGQGTQVTVSS | low polyreactivity |
| QVQLVESGGGLVQAGGSLRLSFAASGRIFQFYGMGWYRQAPGKEREFVAAITRNGGNTYYADSVKGRYTISRDNAKNTVDLQMNSLKPEDTAVYYCAAANPRDHRGANDYWGQGTQVTVSS | high polyreactivity |
| QVQLVESGGGLVQAGGSLRLSFAASGRNFYRYAMGWYRQAPGKERELVAAISRGGRTNYADSVKGRFTISRDNAKNTGYLQMNSLKPEDTAVYYCAVTNFGALYDYWGQGTQVTVSS | high polyreactivity |
| QVQLVESGGGLVQAGGSLRLSFAASGRTFEKYAMGWYRQAPGKERELVAAISGSGGSTFYADSVKGRFTISRDIAKYTVYLQMISLKPEDSAVYYCAADSRSHPGDYWGQGTQVTVSS | low polyreactivity |
| QVQLVESGGGLVQAGGSLRLSFAASGRTFGGYTMGWYRQAPGKERELVAAITWNGGRTYYADSVKGRFTISRDNAKNTVYLQMNILKPEDTAVYFCAVRIRLRRARLSYDYWGQGTQVTVSS | high polyreactivity |
| QVQLVESGGGLVQAGGSLRLSFAASGSIFASNAMGWYRQAPGKERELVAAISKRGGSTYYVDSVKGRFTISRDNAKNTVYFQMNSLKPEDTAVYYCNTYIRQDAPGQYDYWGQGTQVTVSS | high polyreactivity |
| QVQLVESGGGLVQAGGSLRLSFAASGSIFASNTMGWNSPEPGKERELVAAISSNGGSTYYADSVKGRFTISRDNAKNTFYLQMNSLKPEDTGVYYCNAELSTSELGGMYSWGQGTQVTVSS | low polyreactivity |
| QVQLVESGGGLVQAGGSLRLSFAASGSIFVQYAMRWYRPAPGKERELVAAIDFSDTSTYYADSVKGRFTISRDNAKNTVYLHMNSLKPEDTAVYYCAAEEDSPCRSAIAEEEYWGQGTLVTVSS | low polyreactivity |
| QVQLVESGGGLVQAGGSLRLSFAASGSIFYVYAMGWYRQAPGKERELVAAITWSGGSTYYADSVKGRFTLSRDNAKNTVYLQMNSLKPEDTAVYYCAADEGYDYPYYYWGQGTQVTVSS | high polyreactivity |
| QVQLVESGGGLVQAGGSLRLSFAASGSTFSRYAMGWYRQAPGKERELVAAISSGGGTNYADSVKGRFTISRDNAKNTVYLQMNSLKPEDTSVYYRAAVTVDFLKGYGWWFWQISDFWGQVTQVTVSS | low polyreactivity |
| QVQLVESGGGLVQAGGSLRLSFAASGSTFYVYPMGWYRQAPGKERELVAAITDSGGSTYADSVKGRFTISRDNAMNTVYLQFNSLKPEASAVYADSTFYWYYYYWGQGPQVTVSS | low polyreactivity |
| QVQLVESGGGLVQAGGSLRLSFASSGRIFIAYAMGWYRQAPGIERELVAAITSGGGTYYADSVKGRFTISRDNAKNTVYLQMNSLKPVDTAVYYCAAACGRRYPDKFVAITPTYDFWGQGTQVTVSS | low polyreactivity |
| QVQLVESGGGLVQAGGSLRLSFPASGSTYFTYAMGWYRQAPGKERELVAAISWSGGTTYYADSVKGRFTISRDNAKNTVYLQMNSLKPEDTAVYYCASDRAGILKANDYWGKGTQVTVSS | low polyreactivity |
| QVQLVESGGGLVQAGGSLRLSGAASGFIFGYYAMGWYRQAPGKERELVAAITSRGGSTYYADSVKGRFTISRDNAKNTVYLQMNSLKPEDTAVYYCAAGYNGYGLQYYYWGQGTQVTVSS | high polyreactivity |
